Molecular target: Phaseolus coccineus PCNA1 (PcPCNA1), recombinant (Phaseolus coccineus)
Experiment: SEC

- stoichiometry N: 3
Substance: Phaseolus coccineus PCNA1 (PcPCNA1), recombinant (natural protein)
